Results as given in the nanobody polyreactivity screen of Harvey et al. (2022).

Assay: yeast display, Sf9 membrane polyspecificity reagent, FACS + sequencing; frameworks hold sequencing errors
Procedure, shortened: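 After 36–48 hours of galactose induction, yeast (Saccharomyces cerevisiae BJ5465) displaying a synthetic nanobody library were stained at 4 °C for 1 hour with 10% biotinylated, detergent-solubilized Sf9 membrane reagent. Streptavidin microbeads enriched the stained cells before FACS sorting into low and high (top ~1%) gates on anti-HA and streptavidin fluorescence. Each clone's polyreactivity label reflects its gate of origin.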

Sequence	polyreactivity (PSR sort gate)
QVQLVESGGGLVQAGGSLRLSCAASGRISLHNTIGWYRQAPGKERELVAAINYSGGSTYYADTVKGRFTISRDNAKNTVYLQMNSLKPEDTEVYYCAADFYQSHFYRPRYDYWGQGTQVTVSS	low polyreactivity
QVQLVESGGGLVQAGGSLRLSCAASGRISNFYSMGWYIQAPGKERELVAANRSGGSTNYADSVKGRFTISRDNAKYTVYLQMNSLKPEDTAVYYCAAVTGASPTRMDYWGQGTQVTVSS	high polyreactivity
QVQLVESGGGLVQAGGSLRLSCAASGRISQYNAMGWYRQAPGKERELVATITRGGSTYYADSVKGRFTISRDNAKNTVYLQMNSLKPEDTAVYYCATDRYWWSGFDYWGQGTQVTVSS	high polyreactivity
QVQLVESGGGLVQAGGSLRLSCAASGRISVFYAMGWYRQAPGKEMELGAAITRSGTTKYADSVKGRFTISRDNAKNTVYLQMNSLKPEDTAVYYCAARSVYYKFGYYYWGQGSQVTVSS	high polyreactivity
QVQLVESGGGLVQAGGSLRLSCAASGRISVFYTRGWYRQAPGKERELVAVIRTSGGRTNYADSVKGRFTISRDNAKNTVYLQMNSLKPEDTAVYYCAARVVRYGYKYYYWGQGTQVTVSS	low polyreactivity
QVQLVESGGGLVQAGGSLRLSCAASGRITGINAMGWYRPAPGKERELVAAITWRGGRKYYADSVKGRFTISRDNAKNTVYLQMNSLKPEDTAVYYCAAELQGAYYFAYYYWGQGTQVNVSS	high polyreactivity
QVQLVESGGGLVQAGGSLRLSCAASGRIVDIYAMGWYRQAPGTERELVAAITWRGGSTYYADSVKGRFTISRDNAKNTVYLQMNSLKPEDTAVYYCAVDFFTPRGSYYWGQGTQVTVSS	low polyreactivity
QVQLVESGGGLVQAGGSLRLSCAASGRIVFYAMGWYRQAPGKERELVAAITGSGGRTYYADSVKGRFTISRDNAKITVYLQMNSLKPEDTAVYYCAARKWRHGYQGDYWGQGTQVTVSS	high polyreactivity
QVQLVESGGGLVQAGGSLRLSCAASGRIVGFYGMGWYRQAPGKERELVARITVGGGSTYYADSVKGRFTISRDNAKNTGYLQMNSLKPEDTAVYYCNAVYARYGSQGYEYWGQGTQVTVSS	high polyreactivity
QVQLVESGGGLVQAGGSLRLSCAASGRIVRFYGMGWYRQAPGKERELVAAITDGCGTNYADSVKGRFSISRDNAKNTVYLQMNSLKPEDTAVYYCAADSRFVWSGEYWGQGTQVTVSS	low polyreactivity
QVQLVESGGGLVQAGGSLRLSCAASGRIVYVNVMGWYRQAPGKERELVAAINWSDGSTYYADSVKGRFTISRDNAKNTVYLQMNSLKPEETAVYYFNRRGPYGYKAWAIGTIGDLDYWGHGTQVTVSS	low polyreactivity
QVQLVESGGGLVQAGGSLRLSCAASGRIWLYAMGWYRQAPGKERELVAAISWTDGRTRYADSVKGRFTISRDNAKNTVYLQMNRLKPEDTAVYYCAPVVDRGYRRVKYYYWGQGTQVSVSS	high polyreactivity
QVQLVESGGGLVQAGGSLRLSCAASGRIYAMGWYRQAPGKERELVAAISRGGSTYYADSVKGRFTISRDNAKNTVYLQMNSLKPEDTAVYYCARRYASTGYDYWGQCTQVTVSS	high polyreactivity
QVQLVESGGGLVQAGGSLRLSCAASGRIYDRYDMVWYRQAPVKERELVAAISSGGSTYYADSVKGRFTISRDNAKNTVYLQMNSLKPEDTAVNNCAADRRSKYDYWGQGTQVTVSA	low polyreactivity
QVQLVESGGGLVQAGGSLRLSCAASGRIYDYMGWYRQAPGKERELVAAITSSGVSTYYADSVKGRFTISRDNAKNTVYLQMNSLKPEDTAVYYCAAERVYIVWFTHEIFNYWGQGTQVTVSS	high polyreactivity
QVQLVESGGGLVQAGGSLRLSCAASGRIYGKYAMGWSRQAPGKERELVASISYSGGSTYYADSVKGRFTISRDNAKNTVYLHMISLKPEDTAVYYCAARKWRYGRYVYWGQGTQVTVSS	high polyreactivity
QVQLVESGGGLVQAGGSLRLSCAASGRIYGVYALGWYRQAPGKERELVAAITSSGGSTYYADSVKGRFTISRDNAKNTVYLQMNSLKPEDTAVYYCAADNTFRDDYFLYYLFNYNYWGQGTQVTVSS	low polyreactivity
QVQLVESGGGLVQAGGSLRLSCAASGRIYKRNAMGWYRQAPGKERELVAAITGNVGSTYYADSVKGRFTISRDNAKNTVYLQMNSLKPEDTAVYYCAAETYPVWGVAFYYWGQGTQVTVSS	high polyreactivity
QVQLVESGGGLVQAGGSLRLSCAASGRIYNGNAMGWYRQAPGKERELVAAITSDGSTYADSVKGRFTISRDNAKNTVYLHMNSLKPEATADYYCATDDPLAYGSFGPYQPYDYWGQGTQVTVSS	low polyreactivity
QVQLVESGGGLVQAGGSLRLSCAASGRIYNPNGMGWYRQAPGKERELVAVITRSGTSTYYADSVKGRFTISRDNAKNTVYLQMNSLKPEDTAVYYCNAGKKYVDYGGPSSRYYWGQGTQVTVSS	low polyreactivity
QVQLVESGGGLVQAGGSLRLSCAASGRIYRDYAMGWYRQAPGKERELVATITWSGATTYYADSVKGRFTISRDNAKNTVYLQMNSLKPEDTAVYYCAKVYPRFYTFGEYNYWGQGTQVTVSS	low polyreactivity
QVQLVESGGGLVQAGGSLRLSCAASGRIYSQYDMGWYRQAPGKESELVAAISGGVGTNYADSVKGRFTISRDNAKNTVYLQMNSLKPEDSAVYYCAADVGYLGRSRGYPSDDYDYWGQGTQVTVSS	low polyreactivity

Sequence	polyreactivity (PSR sort gate)
QVQLVESGGGLVQAGGSLRLSCAASGRIYSVYAMGWYRQAPGKERELVAAIRSGDRTNYADSVKGRFTISRDNAKNTVYLQMNSLKPEDTAVYYCAAVQRPYYYWGQGTQVTVSS	high polyreactivity
QVQLVESGGGLVQAGGSLRLSCAASGRIYVNAMGWYIQAPGKERELVAAIRSGGSTNYADSVKGRFTISRDNAKNTVYLQMNSLKPEDTAVYYCNARRRDYRHWYDYWGQGTQVTVSS	high polyreactivity
QVQLVESGGGLVQAGGSLRLSCAASGRIYWNDMGWYIQAPGKERELVAAISWGGDRTYYADSVKGRFTISRDNAKNTVYLQMNSLKPEDTSVYYCNAPGYLTYDHSYDYWGQGTQVTVSS	low polyreactivity
QVQLVESGGGLVQAGGSLRLSCAASGRIYWNTMGWYRQAPGKERELVASISTGGGRTYYADSVKGRFTISRDNAKNTVYLQMNSLKPEDTAVYYCAVRSYGHGFDYWGQGTQVTVSS	high polyreactivity
QVQLVESGGGLVQAGGSLRLSCAASGRIYWYYAMGWYRQAPGKERELVATISYGGGNTYYADTVKVRFTISRDNAKNTVYLQMNSLNPEDTAVYYCARVPYAYLPYKPFQQYSYDYWGQGTQVTVSS	high polyreactivity
QVQLVESGGGLVQAGGSLRLSCAASGRKLSWNTMGWYRQAPGKETELVACITQNVGSTYYADSVKGRFTISRDNAKNTVYIQMKSLKPEDTAVYYCAAKRLSWHRYGYWGQGTQETVSS	low polyreactivity
QVQLVESGGGLVQAGGSLRLSCAASGRNFAPNAMGWYRQAPGKERELVAAISGSGTSTYYADSVKGRFTISRDNAKNTVYLQMNSLKPEDTAVYYCAKSARGRRGGFDYWGQGTQVTVSS	low polyreactivity
QVQLVESGGGLVQAGGSLRLSCAASGRNFEIYAMGWYRQAPGKERELVAAISWRGVSTYYADSVKGRFTISRDNAKNTVYLQMNSLKPEDTAVYYCNKDVDYFWYVEYDYWGQGTQVTVSS	low polyreactivity
QVQLVESGGGLVQAGGSLRLSCAASGRNFEQYAMGWYRQAPGKERELVAAISGSGGSTFYADSVKGRFTISRDNAKNTVYVQMNRLKPEDTAVYYCNAPGDGYLYDHTYDYWGQGTQVTVSS	low polyreactivity
QVQLVESGGGLVQAGGSLRLSCAASGRNFEVYTMGWYRQAPGTERELVDAIDRSTGSTYYADSVKGRFTISRDNAKNTVYLQMNSLKPEDTAVYDCAARGTFLGTRPLGRFDYWGQGTQVTVSS	low polyreactivity
QVQLVESGGGLVQAGGSLRLSCAASGRNFFYALGWYRQAPGKERELVASITTSGTSTYYADSVKGRFTISRDNAKNIVYLQMNSLKPEDTAVYYCNATSNSIRWYDLYYWGQGTKVTVSS	low polyreactivity
QVQLVESGGGLVQAGGSLRLSCAASGRNFGYYTMGWYRQAPGKERELVAAITSSGGRTYYADSVKGRFTISRDNAKNTVYLQMNSLIPEVTAVYYCNKVTYGYAYWRYDGYYYWGQGTQVTVSS	low polyreactivity
QVQLVESGGGLVQAGGSLRLSCAASGRNFLSYMGWYRQAPGKERELVAISRSGTSTYYADSVKGRFTISRDNAKNTVYLQMNSLKPEDTAVYYCAAEVLRDGWWGYYYWGQGTQVTVSS	high polyreactivity
QVQLVESGGGLVQAGGSLRLSCAASGRNFPRNVMGWYRQAPGKERELVAAITGSGSSTYYADSVKGRFTISRDIEKNTVYLQMNSLQPEDTAVYYCATIWRFKLGDYWGQGTQVTVSS	high polyreactivity
QVQLVESGGGLVQAGGSLRLSCAASGRNFPVYAMGCYRQAPGKERELVAAMTRSDDSTYYADSVKGRFTISRDNAKNTVYLQMNSLKPEDTAVYYCAADVEGWTVESDVYRVGYDFWGQGTQVTVSS	low polyreactivity
QVQLVESGGGLVQAGGSLRLSCAASGRNFPYYAMGWSRQAPGKERELVADISSSGGRTYYADSVKGRFTTSRDNAKNTVYLQMNSLKPEDTAVYYCNAESTYYPSGEDYWGQGTQVTVSS	low polyreactivity
QVQLVESGGGLVQAGGSLRLSCAASGRNFRVYAMGWYRQAPGKESELVAAITSGGTTYADSVKGRFTISRDNAKNTGYLQMNSLQPEDTAVYYCAARYYIHRGYDYDYWGQGTQVTVSS	high polyreactivity
QVQLVESGGGLVQAGGSLRLSCAASGRNFSGNTMGWYRQAPGKERELVAAITGRGGSTYYADSVKGRFTISRDNAKNTVYLQMNSLKPEDNAVYYCAALRYTFAGRFDYWGQGTQVTVSS	high polyreactivity
QVQLVESGGGLVQAGGSLRLSCAASGRNFYLYAMGWYRPAPGKERELVAAITRRGGSTYYADSVKGRFTISRDNAKNTVYLQMNSLKPEDTAVYYCAADRPGTGYSDYDYWGQGTQVTVSS	high polyreactivity
QVQLVESGGGLVQAGGSLRLSCAASGRNFYSYSMGWYRQEPGKERELVATITSNDGGTDYADSVKGRFTISRDNAKNTVYLQMNSLKPEDTAVYYCNAEDVLPEVGNRYNYWGQGTQVTVSS	low polyreactivity
QVQLVESGGGLVQAGGSLRLSCAASGRNFYYYAMGWYRQAPGKERELVATITGGGRTYYADSVKGRFTISRDNAKNTVYLQMHSLHPEDTAVYYCAAQYGGLSYRYDYWGQGTQVTVSS	high polyreactivity
